B1: cat ACE2 extracellular domain, human IgG1 Fc fusion protein (Fc fusion)
chain: QSTTEELAKTFLEKFNHEAEELSYQSSLASWNYNTNITDENVQKMNEAGAKWSAFYEEQSKLAKTYPLAEIHNTTVKRQLQALQQSGSSVLSADKSQRLNTILNAMSTIYSTGKACNPNNPQECLLLEPGLDDIMENSKDYNERLWAWEGWRAEVGKQLRPLYEEYVALKNEMARANNYEDYGDYWRGDYEEEWTDGYNYSRSQLIKDVEHTFTQIKPLYQHLHAYVRAKLMDTYPSRISPTGCLPAHLLGDMWGRFWTNLYPLTVPFGQKPNIDVTDAMVNQSWDARRIFKEAEKFFVSVGLPNMTQGFWENSMLTEPGDSRKVVCHPTAWDLGKGDFRIKMCTKVTMDDFLTAHHEMGHIQYDMAYAVQPFLLRNGANEGFHEAVGEIMSLSAATPNHLKTIGLLSPGFSEDSETEINFLLKQALTIVGTLPFTYMLEKWRWMVFKGEIPKEQWMQKWWEMKREIVGVVEPVPHDETYCDPASLFHVANDYSFIRYYTRTIYQFQFQEALCRIAKHEGPLHKCDISNSSEAGKKLLQMLTLGKSKPWTLALEHVVGEKKMNVTPLLKYFEPLFTWLKEQNRNSFVGWNTDWRPYADQSIKVRISLKSALGDEAYEWNDNEMYLFRSSVAYAMREYFSKVKNQTIPFVEDNVWVSNLKPRISFNFFVTASKNVSDVIPRSEVEEAIRMSRSRINDAFRLDDNSLEFLGIQPTLSPPYQPPVT
B2: horse ACE2 extracellular domain, human IgG1 Fc fusion protein (Fc fusion)
chain: QSTTEDLAKTFLEKFNSEAEELSHQSSLASWSYNTNITDENVQKMNEAGARWSAFYEEQCKLAKTYPLEEIQNLTVKRQLQALQQSGSSVLSADKSKLNEILNTMSTIYSTGKVCNPSNPQECLLLEPGLDAIMENSKDYNQRLWAWEGWRSEVGKQLRPLYEEYVVLKNEMARANNYEDYGDYWRGDYEAEGPSGYDYSRDQLIEDVERTFAEIKPLYEHLHAYVRAKLMDTYPSHINPTGCLPAHLLGDMWGRFWTNLYSLTVPFGQKPNIDVTDAMVDQSWDAKRIFEEAEKFFVSVGLPNMTQGFWENSMLTEPGDGRKVVCHPTAWDLGKGDFRIKMCTKVTMDDFLTAHHEMGHIQYDMAYAVQPYLLRNGANEGFHEAVGEIMSLSAATPNHLKAIGLLPPDFYEDSETEINFLLKQALTIVGTLPFTYMLEKWRWMVFKGEIPKEEWMKKWWEMKREIVGVVEPVPHDETYCDPAALFHVANDYSFIRYYTRTIYQFQFQEALCQTAKHEGPLHKCDISNSTEAGQKLLQMLSLGKSEPWTLALERIVGVKNMDVRPLLNYFEPLFTWLKDQNKNSFVGWSTNWSPYADQSIKVRISLKSALGEKSYEWNDNEMYLFQSSVAYAMRVYFLKAKNQTILFGEEDVWVSDLKPRISFNFFVTSPKNASDIIPRTDVEEAIRMSRSRINDAFRLDDNTLEFLGIQPTLGPPYQPPVTV

Target: SARS-CoV-2 WHU01 RBD, monomeric (SARS-CoV-2 (WHU01), UniProt P0DTC2)
Test: SPR

Row | Binder | Kd
1 | B1 | 554 nM
2 | B2 | 89.8 nM
